# Values joined by “and” are separate entries in the source; they are usually repeats but may differ in a detail not shown here. Equal entries are not always repeated.
# Experiments:
# Experiment in all cases: cell-based or functional assay
# [1] = target: T1, hemagglutinin (HA) of influenza A/Hong Kong/4801/2014 (H3N2) (influenza A virus (H3N2))
# [2] = target: hemagglutinin (HA) of influenza A/California/04/2009 (H1N1) (influenza A virus (H1N1))
# [3] = target: T2, hemagglutinin (HA) of influenza A/Michigan/45/2015 (H1N1)pdm09 (influenza A virus (H1N1))
# [4] = target: hemagglutinin (HA) of influenza A/Singapore/INFIMH-16 0019/2016 (H3N2) (influenza A virus (H3N2))
# [5] = target: hemagglutinin (HA) of influenza A/Switzerland/8060/2017 (H3N2) (influenza A virus (H3N2))
# [6] = target: hemagglutinin (HA) of influenza A/Kansas/14/2017 (H3N2) (influenza A virus (H3N2))
# [7] = target: hemagglutinin (HA) of influenza A/Bulgaria/10101/2017 (H3N2) (influenza A virus (H3N2))
# [8] = target: hemagglutinin (HA) of influenza A/Latvia/30101/2017 (H3N2) (influenza A virus (H3N2))
# [9] = target: hemagglutinin (HA) of influenza A/Latvia/30314/2017 (H3N2) (influenza A virus (H3N2))
# [10] = target: hemagglutinin (HA) of influenza A/Florida/70303/2017 (H3N2) (influenza A virus (H3N2))
# [11] = target: hemagglutinin (HA) of influenza A/Florida/70327/2017 (H3N2) (influenza A virus (H3N2))
# [12] = target: hemagglutinin (HA) of influenza A/Florida/70604/2017 (H3N2) (influenza A virus (H3N2))
# [13] = target: hemagglutinin (HA) of influenza A/Florida/70609/2017 (H3N2) (influenza A virus (H3N2))
# [14] = target: hemagglutinin (HA) of influenza A/Florida/71210/2017 (H3N2) (influenza A virus (H3N2))
# [15] = target: hemagglutinin (HA) of influenza A/Florida/71268/2017 (H3N2) (influenza A virus (H3N2))
# [16] = target: hemagglutinin (HA) of influenza A/North Carolina/71330/2017 (H3N2) (influenza A virus (H3N2))
# [17] = target: hemagglutinin (HA) of influenza A/Bulgaria/0106011/2018 (H3N2) (influenza A virus (H3N2))
# [18] = target: hemagglutinin (HA) of influenza A/Latvia/0303004/2018 (H3N2) (influenza A virus (H3N2))
# [19] = target: hemagglutinin (HA) of influenza A/Ohio/0717002/2018 (H3N2) (influenza A virus (H3N2))
# [20] = target: hemagglutinin (HA) of influenza A/Georgia/0720003/2018 (H3N2) (influenza A virus (H3N2))
# [21] = target: hemagglutinin (HA) of influenza A/Georgia/0720004/2018 (H3N2) (influenza A virus (H3N2))
# [22] = target: hemagglutinin (HA) of influenza A/Pennsylvania/0725005/2018 (H3N2) (influenza A virus (H3N2))
# [23] = target: hemagglutinin (HA) of influenza A/Pennsylvania/0725006/2018 (H3N2) (influenza A virus (H3N2))
# [24] = target: hemagglutinin (HA) of influenza A/Sydney/0903001/2018 (H3N2) (influenza A virus (H3N2))
# [25] = target: hemagglutinin (HA) of influenza A/Belarus/1003001/2018 (H3N2) (influenza A virus (H3N2))
# [26] = target: hemagglutinin (HA) of influenza A/Singapore/2401001/2018 (H3N2) (influenza A virus (H3N2))
# [27] = target: hemagglutinin (HA) of influenza A/Spain/2604004/2018 (H3N2) (influenza A virus (H3N2))
# [28] = target: T1, hemagglutinin (HA) of influenza A/Hong …; remark: listed apart in the source
# [29] = target: hemagglutinin (HA) of influenza A/Thailand/2702006/2018 (H3N2) (influenza A virus (H3N2))
# [30] = target: hemagglutinin (HA) of influenza A/California/7/2009 (H1N1) (influenza A virus (H1N1))
# [31] = target: hemagglutinin (HA) of influenza A/Brisbane/02/2018 (H1N1) (influenza A virus (H1N1))
# [32] = target: hemagglutinin (HA) of influenza A/Florida/70702/2017 (H1N1) (influenza A virus (H1N1))
# [33] = target: hemagglutinin (HA) of influenza A/Latvia/0303005/2018 (H1N1) (influenza A virus (H1N1))
# [34] = target: hemagglutinin (HA) of influenza A/Latvia/0304001/2018 (H1N1) (influenza A virus (H1N1))
# [35] = target: hemagglutinin (HA) of influenza A/Serbia/0502013/2018 (H1N1) (influenza A virus (H1N1))
# [36] = target: hemagglutinin (HA) of influenza A/Serbia/0502016/2018 (H1N1) (influenza A virus (H1N1))
# [37] = target: hemagglutinin (HA) of influenza A/Georgia/0720001/2018 (H1N1) (influenza A virus (H1N1))
# [38] = target: hemagglutinin (HA) of influenza A/France/1302001/2018 (H1N1) (influenza A virus (H1N1))
# [39] = target: hemagglutinin (HA) of influenza A/France/1306001/2018 (H1N1) (influenza A virus (H1N1))
# [40] = target: hemagglutinin (HA) of influenza A/France/1307001/2018 (H1N1) (influenza A virus (H1N1))
# [41] = target: hemagglutinin (HA) of influenza A/Malay sia/1701001/2018 (H1N1) (influenza A virus (H1N1))
# [42] = target: hemagglutinin (HA) of influenza A/Spain/2602001/2018 (H1N1) (influenza A virus (H1N1))
# [43] = target: hemagglutinin (HA) of influenza A/Spain/2609001/2018 (H1N1) (influenza A virus (H1N1))
# [44] = target: T2, hemagglutinin (HA) of influenza …; remark: listed apart in the source
# [45] = target: hemagglutinin (HA) of influenza A/Thailand/2702008/2018 (H1N1) (influenza A virus (H1N1))
binder,measurement,setting,value
"VIS410 (antibody, V domains shown) VH: QVQLLETGGGLVKPGQSLKLSCAASGFTFTSYAMHWVRQPPGKGLEWVAVVSYDGNYKYYADSVQGRFTISRDNSKNTLYLQMNSLRAEDTAVYYCAKDSRLRSLLYFEWLSQGYFNPWGQGTTLTVSS VL: DIQMTQSPSSLSASVGDRVTITCRSSQSITFDYKNYLAWYQQKPGKAPKLLIYWGSYLESGVPSRFSGSGSGTDFTLTISSLQPEDFATYYCQQHYRTPPSFGQGTKVEIK","EC50, NP ELISA infection assay, both assay formats",[1],10 nM and 20 nM
same,"EC50, virus infection of MDCK-London cells (NP ELISA microneutralization)",[1],~0.01 µM and ~1.5 µg/ml
same,"EC50, virus infection of MDCK-London cells (NP ELISA microneutralization)",[2],~0.006 µM and ~0.9 µg/ml
same,"EC50 (µM) - Replicate 1, CPE assay",[3],0.013 µM
same,"EC50 (µM) - Replicate 2, CPE assay",[3],0.011 µM
same,"IC50, phenotypic IC50 assay (virus infection of MDCK cells)",[4],1.35 µg/mL
same,"IC50, phenotypic IC50 assay (virus infection of MDCK cells)",[5],1.07 µg/mL
same,"IC50, phenotypic IC50 assay (virus infection of MDCK cells)",[6],2.65 µg/mL
same,"IC50, phenotypic IC50 assay (virus infection of MDCK cells)",[7],0.22 µg/mL
same,"IC50, phenotypic IC50 assay (virus infection of MDCK cells)",[8],0.28 µg/mL
same,"IC50, phenotypic IC50 assay (virus infection of MDCK cells)",[9],1 µg/mL
same,"IC50, phenotypic IC50 assay (virus infection of MDCK cells)",[10],0.34 µg/mL
same,"IC50, phenotypic IC50 assay (virus infection of MDCK cells)",[11],0.67 µg/mL
same,"IC50, phenotypic IC50 assay (virus infection of MDCK cells)",[12],1.23 µg/mL
same,"IC50, phenotypic IC50 assay (virus infection of MDCK cells)",[13],2.41 µg/mL
same,"IC50, phenotypic IC50 assay (virus infection of MDCK cells)",[14],0.97 µg/mL
same,"IC50, phenotypic IC50 assay (virus infection of MDCK cells)",[15],3.14 µg/mL
same,"IC50, phenotypic IC50 assay (virus infection of MDCK cells)",[16],0.92 µg/mL
same,"IC50, phenotypic IC50 assay (virus infection of MDCK cells)",[17],1.67 µg/mL
same,"IC50, phenotypic IC50 assay (virus infection of MDCK cells)",[18],4.47 µg/mL
same,"IC50, phenotypic IC50 assay (virus infection of MDCK cells)",[19],0.81 µg/mL
same,"IC50, phenotypic IC50 assay (virus infection of MDCK cells)",[20],0.49 µg/mL
same,"IC50, phenotypic IC50 assay (virus infection of MDCK cells)",[21],0.97 µg/mL
same,"IC50, phenotypic IC50 assay (virus infection of MDCK cells)",[22],2.2 µg/mL
same,"IC50, phenotypic IC50 assay (virus infection of MDCK cells)",[23],1.5 µg/mL
same,"IC50, phenotypic IC50 assay (virus infection of MDCK cells)",[24],1.49 µg/mL
same,"IC50, phenotypic IC50 assay (virus infection of MDCK cells)",[25],1.26 µg/mL
same,"IC50, phenotypic IC50 assay (virus infection of MDCK cells)",[26],1.17 µg/mL
same,"IC50, phenotypic IC50 assay (virus infection of MDCK cells)",[27],0.92 µg/mL
same,"IC50, phenotypic IC50 assay (virus infection of MDCK cells)",[28],1.65 µg/mL
same,"IC50, phenotypic IC50 assay (virus infection of MDCK cells)",[29],1.13 µg/mL
same,"IC50, phenotypic IC50 assay (virus infection of MDCK cells)",[30],0.52 µg/mL
same,"IC50, phenotypic IC50 assay (virus infection of MDCK cells)",[31],0.55 µg/mL
same,"IC50, phenotypic IC50 assay (virus infection of MDCK cells)",[32],0.41 µg/mL
same,"IC50, phenotypic IC50 assay (virus infection of MDCK cells)",[33],0.87 µg/mL
same,"IC50, phenotypic IC50 assay (virus infection of MDCK cells)",[34],0.57 µg/mL
same,"IC50, phenotypic IC50 assay (virus infection of MDCK cells)",[35],0.67 µg/mL
same,"IC50, phenotypic IC50 assay (virus infection of MDCK cells)",[36],0.37 µg/mL
same,"IC50, phenotypic IC50 assay (virus infection of MDCK cells)",[37],0.71 µg/mL
same,"IC50, phenotypic IC50 assay (virus infection of MDCK cells)",[38],0.86 µg/mL
same,"IC50, phenotypic IC50 assay (virus infection of MDCK cells)",[39],0.91 µg/mL
same,"IC50, phenotypic IC50 assay (virus infection of MDCK cells)",[40],0.86 µg/mL
same,"IC50, phenotypic IC50 assay (virus infection of MDCK cells)",[41],0.4 µg/mL
same,"IC50, phenotypic IC50 assay (virus infection of MDCK cells)",[42],0.42 µg/mL
same,"IC50, phenotypic IC50 assay (virus infection of MDCK cells)",[43],0.43 µg/mL
same,"IC50, phenotypic IC50 assay (virus infection of MDCK cells)",[44],0.89 µg/mL
same,"IC50, phenotypic IC50 assay (virus infection of MDCK cells)",[45],0.55 µg/mL
